According to patent US20200199204A1:

Legend:
Test in all cases: cell-based or functional assay
[1] = molecular target: HIV-1 Env of 0260.v5.c36 (HIV-1)
[2] = molecular target: HIV-1 Env of 3016.V5.c36 (HIV-1)
[3] = molecular target: HIV-1 Env of 6405.v4.c34 (HIV-1)
[4] = molecular target: HIV-1 Env of 6535.3 (HIV-1)
[5] = molecular target: HIV-1 Env of 96ZM651.02 (HIV-1)
[6] = molecular target: HIV-1 Env of AC10.29 (HIV-1)
[7] = molecular target: HIV-1 Env of BG505.w6m (HIV-1)
[8] = molecular target: HIV-1 Env of C1080.c3 (HIV-1)
[9] = molecular target: HIV-1 Env of CAAN.A2 (HIV-1)
[10] = molecular target: HIV-1 Env of CAP210.E8 (HIV-1)
[11] = molecular target: HIV-1 Env of CAP244.D3 (HIV-1)
[12] = molecular target: HIV-1 Env of CAP256.PI (HIV-1)
[13] = molecular target: HIV-1 Env of CAP256.SU (HIV-1)
[14] = molecular target: HIV-1 Env of CAP45.G3 (HIV-1)
[15] = molecular target: HIV-1 Env of CM244.ec1 (HIV-1)
[16] = molecular target: HIV-1 Env of CNE3 (HIV-1)
[17] = molecular target: HIV-1 Env of DU156.12 (HIV-1)
[18] = molecular target: HIV-1 Env of DU172.17 (HIV-1)
[19] = molecular target: HIV-1 Env of DU422.01 (HIV-1)
[20] = molecular target: HIV-1 Env of KER2008.12 (HIV-1)
[21] = molecular target: HIV-1 Env of KER2018.11 (HIV-1)
[22] = molecular target: HIV-1 Env of MB201 (HIV-1)
[23] = molecular target: HIV-1 Env of MB539.2B7 (HIV-1)
[24] = molecular target: HIV-1 Env of PVO.04 (HIV-1)
[25] = molecular target: HIV-1 Env of Q168.a2 (HIV-1)
[26] = molecular target: HIV-1 Env of Q23.17 (HIV-1)
[27] = molecular target: HIV-1 Env of Q259.d2.17 (HIV-1)
[28] = molecular target: HIV-1 Env of Q461.e2 (HIV-1)
[29] = molecular target: HIV-1 Env of Q769.d22 (HIV-1)
[30] = molecular target: HIV-1 Env of Q842.d12 (HIV-1)
[31] = molecular target: HIV-1 Env of QH0692.42 (HIV-1)
[32] = molecular target: HIV-1 Env of REJO.67 (HIV-1)
[33] = molecular target: HIV-1 Env of RHPA.7 (HIV-1)
[34] = molecular target: HIV-1 Env of RW020.2 (HIV-1)
[35] = molecular target: HIV-1 Env of SC422.8 (HIV-1)
[36] = molecular target: HIV-1 Env of TH976.17 (HIV-1)
[37] = molecular target: HIV-1 Env of THRO.18 (HIV-1)
[38] = molecular target: HIV-1 Env of TRJO.58 (HIV-1)
[39] = molecular target: HIV-1 Env of TRO.11 (HIV-1)
[40] = molecular target: HIV-1 Env of UG037.8 (HIV-1)
[41] = molecular target: HIV-1 Env of WITO.33 (HIV-1)
[42] = molecular target: HIV-1 Env of ZM109.4 (HIV-1)
[43] = molecular target: HIV-1 Env of ZM135.10a (HIV-1)
[44] = molecular target: HIV-1 Env of ZM197.7 (HIV-1)
[45] = molecular target: HIV-1 Env of ZM214.15 (HIV-1)
[46] = molecular target: HIV-1 Env of ZM233.6 (HIV-1)
[47] = molecular target: HIV-1 Env of ZM249.1 (HIV-1)
[48] = molecular target: HIV-1 Env of ZM53.12 (HIV-1)

Substance: CAP256-VRC26.28 (antibody)
- IC50 (neutralization, TZM-bl) [1]: > 50 µg/mL
- IC50 (neutralization, TZM-bl) [2]: 0.008 µg/mL
- IC50 (neutralization, TZM-bl) [3]: > 50 µg/mL
- IC50 (neutralization, TZM-bl) [4]: > 50 µg/mL
- IC50 (neutralization, TZM-bl) [5]: > 50 µg/mL
- IC50 (neutralization, TZM-bl) [6]: > 50 µg/mL
- IC50 (neutralization, TZM-bl) [7]: 0.044 µg/mL
- IC50 (neutralization, TZM-bl) [8]: 0.012 µg/mL
- IC50 (neutralization, TZM-bl) [9]: > 50 µg/mL
- IC50 (neutralization, TZM-bl) [10]: < 0.0006 µg/mL
- IC50 (neutralization, TZM-bl) [11]: > 50 µg/mL
- IC50 (neutralization, TZM-bl) [12]: > 50 µg/mL
- IC50 (neutralization, TZM-bl) [13]: < 0.0006 µg/mL
- IC50 (neutralization, TZM-bl) [14]: 0.016 µg/mL
- IC50 (neutralization, TZM-bl) [15]: 0.64 µg/mL
- IC50 (neutralization, TZM-bl) [16]: > 50 µg/mL
- IC50 (neutralization, TZM-bl) [17]: 0.171 µg/mL
- IC50 (neutralization, TZM-bl) [18]: > 50 µg/mL
- IC50 (neutralization, TZM-bl) [19]: 0.075 µg/mL
- IC50 (neutralization, TZM-bl) [20]: 0.76 µg/mL
- IC50 (neutralization, TZM-bl) [21]: < 0.0006 µg/mL
- IC50 (neutralization, TZM-bl) [22]: > 50 µg/mL
- IC50 (neutralization, TZM-bl) [23]: 29.4 µg/mL
- IC50 (neutralization, TZM-bl) [24]: 6 µg/mL
- IC50 (neutralization, TZM-bl) [25]: 0.003 µg/mL
- IC50 (neutralization, TZM-bl) [26]: 0.005 µg/mL
- IC50 (neutralization, TZM-bl) [27]: 0.012 µg/mL
- IC50 (neutralization, TZM-bl) [28]: 1.59 µg/mL
- IC50 (neutralization, TZM-bl) [29]: > 50 µg/mL
- IC50 (neutralization, TZM-bl) [30]: 0.779 µg/mL
- IC50 (neutralization, TZM-bl) [31]: > 50 µg/mL
- IC50 (neutralization, TZM-bl) [32]: > 50 µg/mL
- IC50 (neutralization, TZM-bl) [33]: > 50 µg/mL
- IC50 (neutralization, TZM-bl) [34]: > 50 µg/mL
- IC50 (neutralization, TZM-bl) [35]: > 50 µg/mL
- IC50 (neutralization, TZM-bl) [36]: > 50 µg/mL
- IC50 (neutralization, TZM-bl) [37]: > 50 µg/mL
- IC50 (neutralization, TZM-bl) [38]: > 50 µg/mL
- IC50 (neutralization, TZM-bl) [39]: > 50 µg/mL
- IC50 (neutralization, TZM-bl) [40]: > 50 µg/mL
- IC50 (neutralization, TZM-bl) [41]: > 50 µg/mL
- IC50 (neutralization, TZM-bl) [42]: > 50 µg/mL
- IC50 (neutralization, TZM-bl) [43]: > 50 µg/mL
- IC50 (neutralization, TZM-bl) [44]: 0.193 µg/mL
- IC50 (neutralization, TZM-bl) [45]: 6.85 µg/mL
- IC50 (neutralization, TZM-bl) [46]: 0.002 µg/mL
- IC50 (neutralization, TZM-bl) [47]: 0.082 µg/mL
- IC50 (neutralization, TZM-bl) [48]: < 0.0006 µg/mL
